Results published in patent US20180002403A1 (CRESCENDO BIOLOGICS, published 2018).

B1: clone 2.2 VH (VHH)
VHH: QVQLVQSGAEVKKPGASVKVSCKASGYPFTSYDINWVRQATGRSLEWMGWMNPTNGNTVYAQKFQDRVTMTRNTSISTAYMELSSLRSEDTAVYFCARGRRDDWKNNYWGQGTLVTVSS
notes: Optimized variant of clone 2.1 from the recombination library; human VH single domain; also called optimized VH 2.2
B2: clone 1.10 VH (VHH)
VHH: VQLVESGGGLVQPGGSLRLSCAASGFTFSSYRMYWVRQAPGKGLEWVASIEQDGSEEYYVDSVKGRFTISRDNAKKSLFLQMNSLRAEDTAVYYCAKGEILPLYFDYWGQGTLVTVSS
notes: Optimized variant of clone 1.1 from the recombination library; human VH single domain; also called optimized VH clone 1.10
B3: clone 1.1 VH (VHH)
VHH: EVQLVESGGGLVQPGGSLRLSCAASGFTFSSYSMYWVRQAPGKGLEWVANIKQDGSEKYYVDSVKGRFTISRDNAKNSLFLQMNSLRAEDTAVYYCAKGEILPLHFDYWGQGTLVTVSS
notes: Human VH single domain (no light chain) from a Tg/TKO mouse, lead raised against IL-17A; It was cloned in phagemid pUCG3; also called VH 1.1; parent VH 1.1
B4: clone 1.6 VH (VHH)
VHH: EVQLVESGGGLVQPGGSLRLSCAASGFTFSSYSMYWVRQAPGKGLEWVAEIKQDGSEQYYVDSVKGRFTISRDNAKNSLYLQMNSLRAEDTAVYYCAKGEILPLYFDYWGQGTLVTVSS
notes: Optimized variant of clone 1.1 from the recombination library; human VH single domain; also called optimized VH clone 1.6

Experiments:
[1] = molecular target: IL-17RA Fc fusion protein (human, UniProt Q96F46 33-320, limits assumed); experiment: BIAcore T200, single-cycle kinetics, IL-17RA Fc fusion captured on protein G chip, 1:1 model
Protocol: (§1) Recombinant IL-17A (Peprotech AF-200-17) was diluted to 1 μg/ml in acetate buffer, pH 5.5 (BIAcore, cat# BR-100-52) and coupled to a CM5 Series S chip (cat # BR-1006-68) using amine-coupling chemistry (NHS-EDC amine-coupling kit, cat # BR-1000-50) and the BIAcore immobilization Wizard software. In this way 100RU of IL-17A was immobilised plus a blank surface (no IL-17A) was also prepared for reference subtraction. For IL-17RA, first a protein G chip was prepared by diluting protein G to 20 μg/ml in acetate buffer, pH 4 (BIAcore, cat# BR-100-49) and then coupled 1200 RU a CM5 Series S chip using amine coupling chemistry. This surface was then used to capture IL-17RA Fc fusion protein from solution: IL-17RA at 10 μg/ml in HBS injected for 10 seconds at 30 μl/min flow rate would capture approximately 100-150RU of IL-17RA onto the protein G surface.
(§2) Binding kinetics of optimized clone 1.1 (anti-IL-17A) and clone 2.1 (anti-IL-17RA) VH were determined by single-cycle kinetics. […] VH binding kinetics were then determined from the (blank subtracted) sensorgram traces using 1:1 binding models and BIAevaluation software.

[2] = molecular target: T1, Recombinant human IL-17A (Peprotech AF-200-17) (human, UniProt Q16552 24-155); experiment: BIAcore T200, single-cycle kinetics, IL-17A amine-coupled to CM5 chip, 1:1 model
T1 construct: Amine-coupled to a CM5 chip (100 RU) for BIAcore; also called recombinant IL-17A
T1 sequence (Q16552 24-155 limits assumed): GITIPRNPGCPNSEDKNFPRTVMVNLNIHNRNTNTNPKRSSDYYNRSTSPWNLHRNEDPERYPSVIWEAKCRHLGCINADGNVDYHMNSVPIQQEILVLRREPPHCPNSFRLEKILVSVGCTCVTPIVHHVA
Protocol: as §1, §2

[3] = molecular target: T1, Recombinant human IL-17A (Peprotech …); experiment: BIAcore T200, single-cycle kinetics, IL-17A amine-coupled to CM5 chip
Protocol: Binding kinetics of VH antibodies were measured on a BIAcore T200 instrument. Target (either recombinant IL-17A or IL-17RA) was diluted to 1 μg/ml in acetate buffer, pH 5.5 (BIAcore, cat# BR-100-52) and coupled to a CM5 Series S chip (cat # BR-1006-68) using amine-coupling chemistry (NHS-EDC amine-coupling kit, cat # BR-1000-50) and the BIAcore immobilization Wizard software. In this way 100RU of target was immobilised plus a blank surface (no target) was also prepared for reference subtraction.
Binding kinetics of VH antibodies were determined by single-cycle kinetics. VH antibodies were prepared in dilution series (typically 1:3 dilution series starting with 100 nM VH at the highest concentration), and then injected over the antigen-coated surfaces and also a blank surface, starting with the lowest concentration of VH and then working progressively up to the highest concentration. VH binding kinetics were then determined from the (blank subtracted) sensorgram traces using 1:1 binding models and BIAevaluation software.

Binder	fold improvement in affinity over parent clone 1.1 [2] [fold]	other results
B1		fold improvement in affinity over parent clone 2.1 [1]: 5 fold
B2	≤ 10	
B3		binding result [3]: binds
B4	≤ 10	
